Laboratory results: the nanobody polyreactivity screen of Harvey et al. (2022)

Assay: yeast display, Sf9 membrane polyspecificity reagent, FACS + sequencing; frameworks hold sequencing errors
In short: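 Using colony PCR, genes from sorted yeast display clones were amplified, then sequenced on MiSeq at 2 × 250 and filtered by CDR length. The clones had been stained with 10% biotinylated, detergent-solubilized Sf9 membrane reagent for 1 hour at 4 °C and sorted by FACS into low and high (top ~1%) gates on anti-HA and streptavidin fluorescence. Polyreactivity labels come from the gate of origin.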

Sequence	polyreactivity (PSR sort gate)
QVQLVESGGGLVQAGGSLRLSCAASVFLPYTMGWYRQAPGKERELVAAITRGGSTYYADSVKGRFTISRDNAKNTVYLQMNSLKPEDTAVYYCAKRSTFAWRGYDYWGQGTQVTVSS	high polyreactivity
QVQLVESGGGLVQAGGSLRLSCAASVFTFISYAMGRYRQAPGKEREFVAAITRGGGSTYYADSVKGRFTISRDNAKNTVYLQMNSLKPEDTAVYYCAADPQSTIRDYWGQGTQVTVSS	high polyreactivity
QVQLVESGGGLVQAGGSLRLSCAASVFTFKINGMGWYRQAPGKEREFVATIRTSTGRTYYADSVKGRFTISRDNAKNTVYLQMNSLKPEDTAVYYCDTRVRQGNTHPNGKSDDYWGQGTQVTVSS	high polyreactivity
QVQLVESGGGLVQAGGSLRLSCAASVFTFVRYSMGWYRQAPGKERELVAAISSGGRTYYADSVKGRFTISRDNAKYTVYLQMNSLKPEDTAVYYCAADTKFGYGYWGQGTQVNVSS	high polyreactivity
QVQLVESGGGLVQAGGSLRLSCAASVIIISYYAIGWYRQAPGKERELVAAITRGGGRTYYADSVKGRFTISRDNAKNTVYLQMNSLKPEDTAVYYCKALSRYVENDYWGQGTQVTVSS	high polyreactivity
QVQLVESGGGLVQAGGSLRLSCAASVRIFAKYAMGWYRQAPGKERELVAAITSGGRTYYADSVKGRFTISRDNAKNTVYLPMNSLKPEDTAVYYCNAVPKSRDWQSYGSWGQGTQVTVSS	high polyreactivity
QVQLVESGGGLVQAGGSLRLSCAASVRIFGSNVMGWYRQAPGKERELVASISSGGTTYYADSVKGRFTISRDNAKYTVYLQMNSLKPEDTAVYYCAKQWTRIYQYRWYPGTRTGYDYWGQGTQVTVSS	high polyreactivity
QVQLVESGGGLVQAGGSLRLSCAASVRIFVYNTMGWYRQAPGKERELVAAINYSGGSTYYADSVKGRFTISRDNAKNTVYLQMNSLKPEDTAVYYCAVKLRSRAGTSYGYWGQGTQVTVSS	high polyreactivity
QVQLVESGGGLVQAGGSLRLSCAASVRSFRWYTMGWYRQAPGKERELVATISWRGGSTSYADSVKGRFTISRDNAKNTVYLQMNSLKPEDNAVYYCNAVYLWWAYDYWGQGTQVTVSS	high polyreactivity
QVQLVESGGGLVQAGGSLRLSCAASVRTFKWYAMGWYRQAPGKERELVAGISRGAGRTYYADSVKWRFTMSRDNAKNTVYLQMNSLKPEDTAVYYCAAVPSYHSTSPFYYWGQGTQVTVSS	high polyreactivity
QVQLVESGGGLVQAGGSLRLSCAASVRTFKYYAMGWYRQAPGKERELVAAISWSGSSTYYADSVKGRFTISRDNAKNTVDLPMNSLKPEDPAVYYCAAATYRQFTGTYDYWGQGTQVTVSS	high polyreactivity
QVQLVESGGGLVQAGGSLRLSCAASVRTFRIYAMGWYRQAPGKERELVAAISWDDGSTYYADSVKGRFTISRDNAKNTVYLQMNSLKPEDTAVYYCAAEYYFVNRGAWYDYWGQGTQVTVSS	high polyreactivity
QVQLVESGGGLVQAGGSLRLSCAASVRTFVVYAMGWYRQAPGKEREMVAVISFTGDSTFYADSVKGRFTISRDNAKNTVYLQMNSLKPEDTAVYYCNAGPYTYLHWNQAISRYYYWGQGTQVTVSS	low polyreactivity
QVQLVESGGGLVQAGGSLRLSCAASVRTSGRYAMGWYRQAPGKERELVAAISWSGGSTYYADSVQGRFTSSRDNAKNTVYLQMNSLKPEDTAVYYCNAQHALGYYYWGQGTQVTVSS	low polyreactivity
QVQLVESGGGLVQAGGSLRLSCAASVSIFATNAKGWYRQAPGKERELVASISSGGGSTYYADSVKGRFTISRDNEKNTVYLQMNSLKPEDTAVYYFARRIGHGSRPYWLETWRYPYDYWGQGTQLTVSS	low polyreactivity
QVQLVESGGGLVQAGGSLRLSCAASVSIFAYYAMGLYRQAPGKERELVAAISRGGDTNYADSVKGRFTISRDNAKNTVYLQMNSLKPEDTAVSYCAATSYVRGYWYGYWGQGSQVTVSS	high polyreactivity
QVQLVESGGGLVQAGGSLRLSCAASVSIFGPYAKGWYRQAPGKERDLDAAISRGSRTNYADSVKGLFTISRDNEKNTVYLQMNSLKPEDTAVYYCAARYVWRSTHHRGSTYDYWRQGTQVTVSS	high polyreactivity
QVQLVESGGGLVQAGGSLRLSCAASVSIFSSYAMGWYRQAPGKERELVAAISSSGDSTDADSVKGRFTISRDNAKNTVYLQMNSLKPEDTAVYYCAVGGAGSDDYWGHGTQVTVSS	low polyreactivity
QVQLVESGGGLVQAGGSLRLSCAASVSIFYPYAMGWYRQAPGKERELVAAIRWSGGRTYYADSVKGRFTISRDNAKNTVYLQMNSLKPEDTAVYYCAADGQVSGYDYWGQGTQVTVSS	high polyreactivity
QVQLVESGGGLVQAGGSLRLSCAASVSIIACYTMGWYRQATGTERELVAGIRRGGSTNYADSVKGRVTISRDNAKNTVYLQMNSLKPEDTAVYYCNAQRTRSYVLRTFDYWGQGTQVTVSS	high polyreactivity
QVQLVESGGGLVQAGGSLRLSCAASVSIILDNAMGWYRQAPGKERELVASIDWSGGSTDYADSVKGRFTISRDNAKNTVYLQMNSLKPEDTAVYYCNAERYPYRLRARKLDYWGQGTQVTVSS	low polyreactivity
QVQLVESGGGLVQAGGSLRLSCAASVSTFALYVMGWYRQAPGKERELVAAITDSSSTYYADSVKGRFTISRDNAKNTVYLQMNSLKPEDTAVYYCAARGRLIYAITYRNSPVYYWGQGTQVTVSS	low polyreactivity

Sequence	polyreactivity (PSR sort gate)
QVQLVESGGGLVQAGGSLRLSCAASVSTFDYYTMGRYRQAPGKERELVAAISSAGSTNYADSVKGRFTISRDNAKNTVYLQMNSLKPEDTAVYYCAAQVHPIRYDYWGQGTQVTVSS	low polyreactivity
QVQLVESGGGLVQAGGSLRLSCAASVSTFFRNAMGWYRQAPGKERELVAAISKSGTSTYYADSVKGRFTISRDNAKNTVYLQMNSLKPEDTAVYYCAKYGFSYPQSYAYYYWGQGTQVTVSS	high polyreactivity
QVQLVESGGGLVQAGGSLRLSCAASVSTFGGYAMGWYRQAPGKERELDAAITYSGGSTYYADSVKGRFTISRDNAKNTVYLQMNSLKPEDTAVYYCNADDDDALPWWWPYVLDVDYWGQGTQVTVSS	low polyreactivity
QVQLVESGGGLVQAGGSLRLSCAASVSTFRNYAMGWYRQAPGKERELVAAISGSGVRTYYADSVKGRFTISRDNAKNTVYLQMNSLKPEDTAVYYCAARGQGGPYNYWGQGTQVTVSS	high polyreactivity
QVQLVESGGGLVQAGGSLRLSCAASVSTFVLYAMGWYRQAPGKERELVAVISWSGGSTYYADSVKGRFTISRDNAKNTVYLQMNSLKPEDTAVYYCAADSTWEGGYKYEYWGQGTQVTVSS	low polyreactivity
QVQLVESGGGLVQAGGSLRLSCAASVSTFYRYTMVWYRQAPGKERELVAAITYRGGTTYYADSVKGRFTISRDNAKNTVYLQMNSLKPEDTAVYYCAAYSSLGYIMNYWGQGTQVTVSS	high polyreactivity
QVQLVESGGGLVQAGGSLRLSCAASVSTIGYYAMGWYRQAPGKEWELVAAITWSGDSTYADSVKGRFTISRDNAKNTVYLQMNRLKPEDTAVYYCARRGFLGHWPRPSYDYWGQGTQVTVSS	low polyreactivity
QVQLVESGGGLVQAGGSLRLSCAASVYIFVPYTLGWYRQAPGKERELVAAITRSGGSTYYADSVKGRFTISRDNAKNTVSLQMNSLKPEDTAVYYCATVGGPRWVRAQYDYWGQGTQVTVSS	high polyreactivity
QVQLVESGGGLVQAGGSLRLSCAASVYTFSKNTMGWYRQAPGKEREFVAAINWSGGSTYYADSVKGRFTISRDNAKNTVYLQMNSLKPEDTAVYYFAARRGGRRGYDYWGQGTQVTVSS	high polyreactivity
QVQLVESGGGLVQAGGSLRLSCAATGFIFPYYAMGLYRQAPGKEREMVAAITFSATRTYYADSVKGRFTISRDNAKNTVYLQMNSLKPEDTAVYYCNARGGVYGSYFEFNYWGQGTQVTVSS	low polyreactivity
QVQLVESGGGLVQAGGSLRLSCAATGFRFVHTAIGWYRKAPGKERELVAAIRSRGGSTYYADSVKGRFTISRDNAKNTVYLQMKSLKPEDTAVYYCAADGAVDSSSRKFGYWGQGTQVNVSS	low polyreactivity
QVQLVESGGGLVQAGGSLRLSCAATGFTFGWNDMGWYRQARGKEMELVAAISGGGGSTYYADSVKGRFTISRDNAKNTVYLQMNSLKPEDTAVYYCATDSGTLIVKYDYWGQGTQVTVSS	low polyreactivity
QVQLVESGGGLVQAGGSLRLSCAATGFTFRYNAMGWYRQAPGKERELGAAISIGGTTNYADSVKGRFTISRDNAKNTVYLQMNSLKPEDTAVYYCNALGTYFRRYDYWGQGTQVTVSS	low polyreactivity
QVQLVESGGGLVQAGGSLRLSCAATGFTFSLYGMGWYRQAPGKERELVAAIRSGGSTNYADSVKGRFTISRDNAKNTVYLQMNSLKPVDTAVYYCATDIHSVHNNRDKHDYDYWGQGTQVTVSS	low polyreactivity
QVQLVESGGGLVQAGGSLRLSCAATGFTFSYYALGWYRQAPGKERELVAVISDRGGITYYADSVKGRFTISRDNAKNTVYLQMNSLKPEDTADYYCAAQNPRYNYRYYYWGHGTQVTVSS	low polyreactivity
QVQLVESGGGLVQAGGSLRLSCAATGLTIWHYVMGWYRQAPGKERELVATISSSGGSTFYADSVKGRFTISRDNAKNTVYLQMNSLKPEDTAVYYCNADQYSWRWRRKHDYWGQGTQVTVSS	high polyreactivity
QVQLVESGGGLVQAGGSLRLSCAATGRIFGRNAMGWYRQAPGKERELVAAINSGVSTYYADSVKGRFTISRDNAKNTVYLQMNSLKPQDTAVYYCANAPPRRYYDFDYWGQGTQVTVSS	low polyreactivity
QVQLVESGGGLVQAGGSLRLSCAATGRIVTSNAMGWYRQAPGKERELVAVISRRGGSTYYADSVKGRFTISRDNAKNTVYLQMNRLKPEETAVYYCARRPYSYTRYEYWGQGTQVTVSS	low polyreactivity
QVQLVESGGGLVQAGGSLRLSCAATGRTFQDNAMGWYRQAPGKERELVAAISWRGGSTNYADSVKGRFTISRDNAKNTVYLQMNSLKPEDTAVYYCNRDPRKYGKLDYWGQGTQVTVSS	low polyreactivity
QVQLVESGGGLVQAGGSLRLSCAATGRTFQFNAMGRYRQAPGKERELVAAITSNGGSTNYADSVKGRFTISRDNAKNTVYVQMNSLKPEDTAVYYSAAPRFRYYYWDMDYWGQGTQVTVSS	low polyreactivity
QVQLVESGGGLVQAGGSLRLSCAATGSIFDLNSMGWYRQAPGKEREVVAAISSGGGTYYADSVKGRFTISRDNANNTVFLQMNSLKPEDTAVYYCIRVTYRSRGRDYWGQGNQVTVSS	high polyreactivity
